# Assay results reported in publication PMC6548137, “Structural basis for the nuclear import and export functions of the biportin Pdr6/Kap122” (The Journal of Cell Biology, 2019).
# T1: H14-ZZ-bdSUMO-tagged Pdr6 (S. cerevisiae, UniProt P32767 2-1081)
# T1 construct: Pdr6/Kap122, S. cerevisiae; also called tagged NTR; source: E. coli Top10 F', purified (Ni(II) chelate, imidazole elution); not shown: His14, N-terminal, kept; ZZ, N-terminal, kept; bdSUMO, N-terminal, kept
# T1 sequence: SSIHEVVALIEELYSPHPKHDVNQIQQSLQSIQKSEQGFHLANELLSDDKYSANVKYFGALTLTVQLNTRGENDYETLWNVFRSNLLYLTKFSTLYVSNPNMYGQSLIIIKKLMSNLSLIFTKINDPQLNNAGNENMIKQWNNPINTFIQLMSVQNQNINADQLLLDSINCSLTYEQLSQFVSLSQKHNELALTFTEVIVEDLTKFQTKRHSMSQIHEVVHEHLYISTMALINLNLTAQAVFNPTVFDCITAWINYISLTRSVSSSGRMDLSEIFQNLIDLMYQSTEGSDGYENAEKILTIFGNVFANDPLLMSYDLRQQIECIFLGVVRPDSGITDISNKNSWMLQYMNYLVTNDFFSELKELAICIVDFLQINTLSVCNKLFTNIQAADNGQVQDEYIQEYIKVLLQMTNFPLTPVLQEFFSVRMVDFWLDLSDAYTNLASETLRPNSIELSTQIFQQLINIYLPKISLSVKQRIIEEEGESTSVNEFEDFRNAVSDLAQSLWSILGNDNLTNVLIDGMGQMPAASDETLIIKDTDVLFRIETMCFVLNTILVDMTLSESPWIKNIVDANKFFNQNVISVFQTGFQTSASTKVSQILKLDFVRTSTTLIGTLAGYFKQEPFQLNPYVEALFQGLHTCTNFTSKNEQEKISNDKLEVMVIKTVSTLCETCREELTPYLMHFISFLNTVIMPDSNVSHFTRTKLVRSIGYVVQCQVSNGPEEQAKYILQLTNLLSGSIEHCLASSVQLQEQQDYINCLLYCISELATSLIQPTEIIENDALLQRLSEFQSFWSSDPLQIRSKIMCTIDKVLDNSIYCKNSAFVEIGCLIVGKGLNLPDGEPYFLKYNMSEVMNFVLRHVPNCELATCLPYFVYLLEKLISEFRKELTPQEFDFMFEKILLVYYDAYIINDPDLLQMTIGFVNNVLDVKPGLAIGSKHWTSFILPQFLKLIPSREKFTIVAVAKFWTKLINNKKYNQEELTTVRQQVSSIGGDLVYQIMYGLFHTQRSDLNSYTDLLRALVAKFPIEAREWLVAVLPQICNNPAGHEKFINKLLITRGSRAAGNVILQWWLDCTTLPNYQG
# B1: Pdr6/Kap122 (S. cerevisiae), full length, tag removed (natural protein)
# chain: MSSIHEVVALIEELYSPHPKHDVNQIQQSLQSIQKSEQGFHLANELLSDDKYSANVKYFGALTLTVQLNTRGENDYETLWNVFRSNLLYLTKFSTLYVSNPNMYGQSLIIIKKLMSNLSLIFTKINDPQLNNAGNENMIKQWNNPINTFIQLMSVQNQNINADQLLLDSINCSLTYEQLSQFVSLSQKHNELALTFTEVIVEDLTKFQTKRHSMSQIHEVVHEHLYISTMALINLNLTAQAVFNPTVFDCITAWINYISLTRSVSSSGRMDLSEIFQNLIDLMYQSTEGSDGYENAEKILTIFGNVFANDPLLMSYDLRQQIECIFLGVVRPDSGITDISNKNSWMLQYMNYLVTNDFFSELKELAICIVDFLQINTLSVCNKLFTNIQAADNGQVQDEYIQEYIKVLLQMTNFPLTPVLQEFFSVRMVDFWLDLSDAYTNLASETLRPNSIELSTQIFQQLINIYLPKISLSVKQRIIEEEGESTSVNEFEDFRNAVSDLAQSLWSILGNDNLTNVLIDGMGQMPAASDETLIIKDTDVLFRIETMCFVLNTILVDMTLSESPWIKNIVDANKFFNQNVISVFQTGFQTSASTKVSQILKLDFVRTSTTLIGTLAGYFKQEPFQLNPYVEALFQGLHTCTNFTSKNEQEKISNDKLEVMVIKTVSTLCETCREELTPYLMHFISFLNTVIMPDSNVSHFTRTKLVRSIGYVVQCQVSNGPEEQAKYILQLTNLLSGSIEHCLASSVQLQEQQDYINCLLYCISELATSLIQPTEIIENDALLQRLSEFQSFWSSDPLQIRSKIMCTIDKVLDNSIYCKNSAFVEIGCLIVGKGLNLPDGEPYFLKYNMSEVMNFVLRHVPNCELATCLPYFVYLLEKLISEFRKELTPQEFDFMFEKILLVYYDAYIINDPDLLQMTIGFVNNVLDVKPGLAIGSKHWTSFILPQFLKLIPSREKFTIVAVAKFWTKLINNKKYNQEELTTVRQQVSSIGGDLVYQIMYGLFHTQRSDLNSYTDLLRALVAKFPIEAREWLVAVLPQICNNPAGHEKFINKLLITRGSRAAGNVILQWWLDCTTLPNYQG
# Assays:
# Conditions in all cases: both partners purified
# [1] = target: human RanQ69L (residues 5-180), GTP-bound (human, UniProt P62826 5-180, Q69L); test: crystal structure; Pdr6•RanGTP, hexagonal crystals, 18°C, 50 mM sodium acetate pH 5.5, 220 mM MgCl2, 19% pentaerythritol propoxylate, 10% 2-Methyl-2,4-pentanediol
# [2] = target: T1, H14-ZZ-bdSUMO-tagged Pdr6; test: pull-down; 1 µM H14-ZZ-bdSUMO-tagged NTR with 2 µM human or yeast Ubc9; retrieved via the tagged NTR by anti-Protein A beads, eluted by bdSENP1 protease, SDS-PAGE and Coomassie
# [3] = target: B1; test: crystal structure; Pdr6•Ubc9, 18°C, 50 mM sodium cacodylate pH 5.7, 20 mM MgCl2, 3-5% ethanol
binding result [1],binding result [2],binding result [3],Binder
binds,–,–,B1
–,binds,binds,"S. cerevisiae Ubc9, full length (enzyme, UniProt P50623 1-157, looked up, Ubc9, SUMO-conjugating E2 enzyme, S. cerevisiae, full length; residues 2-157 are in the model; Full length is said for the crystallised protein; also called yeast Ubc9; source: NEB Express cells, purified (Ni(II) chelate)) MSSLCLQRLQEERKKWRKDHPFGFYAKPVKKADGSMDLQKWEAGIPGKEGTNWAGGVYPITVEYPNEYPSKPPKVKFPAGFYHPNVYPSGTICLSILNEDQDWRPAITLKQIVLGVQDLLDSPNPNSPAQEPAWRSFSRNKAEYDKKVLLQAKQYSK"
